Like-named read-outs stand apart in the source and are kept apart here.

Series [1] is described as follows: Curcumin half-life in glycine buffer at pH 9.0. The series is classed as physicochemical. The source says:
Curcumin reduces Aβ fibril formation in vitro and when administered systemically to transgenic rodents predisposed to Alzheimer's disease (Hamaguchi T et al, Am J Pathol 175, 2557-2565 (2009) incorporated by reference herein). Curcumin has also been reported to inhibit the polymerization of α-synuclein, the compound responsible for Lewy body formation in diseases such as Parkinson's disease (Ono K and Yamada M, Curr Pharm Des 14, 3247-3266 (2008) and Ono K et al Curr Pharm Des 14, 3247-3266 (2008); both of which are incorporated by reference herein). This finding was confirmed in Pandey N et al, Acta Neuropathol 115, 479-489 (2008); which is incorporated by reference herein. However, curcumin stored in a glycine buffer at pH 9.0 degrades quickly with a half-life of about 7 hours.

For series [2] the following is noted: 37° C., alkaline (around pH 10) compared to acidic (about pH 3); cited from earlier work.
The nature of series [3]: Reversed phase LCMS of glucagon modifications after aging. The series is classed as physicochemical. Here is the method: FIG. 3 is a set of four chromatograms from reversed phase LCMS showing the modifications present in glucagon incubated with ferulic acid under the indicated conditions and the recovery by adding varying amounts of L-methionine. The peak indicated as ‘A’ is identified as Met27 oxidation of glucagon; the peak indicated as ‘B’ is a minor breakdown product; the peaks indicated as ‘C’ are identified as glycine adducts.
FIG. 4 is a set of four spectra from reversed phase LCMS showing the modifications present in glucagon incubated under the indicated conditions. The peak indicated as ‘A’ is identified as Met27 oxidation of glucagon; the peak indicated as ‘B’ is a minor breakdown product; the peaks indicated as ‘C’ are identified as glycine adducts.
This oxidation occurs on amino acid residue 27, which is a methionine residue (Met27). In order to minimize oxidation, L-methionine was added to the formulation as an antioxidant at 0.1 and 1 mg/ml. […] This is presumably due to activation of a reactive site on the glucagon backbone that results in an addition reaction with glycine from the bulk solvent. In order to maximize the antioxidant properties while also minimizing the glycine adduct formation, a concentration of 0.1 mg/ml L-methionine was tested. Results are shown in the third panel from the top of FIG. 3. This particular formulation had some minor chain cleavage (peak B) that is variable from batch to batch. As a result, the formulation referred to herein as FAFG includes 0.1 mg/ml L-methionine.
This peak is inhibited at 0.1 mg/ml L-methionine added and nearly absent at 1 mg/ml L-methionine to minimize the oxidation even though glycine adducts are still in high amounts. As a result, the formulation referred to herein as THCFG includes 1 mg/ml L-methionine.
Ferulic acid and tetrahydrocurcumin modify glucagon less than curcumin.

For series [4] the following is noted: cited from earlier work.
The next series relates to cultured mammalian cells. To be noted: fibrillated glucagon; cited from earlier work.
Series [5] is described as follows: 1st order degradation kinetics of ferulic acid / tetrahydrocurcumin in glucagon formulations. The series is classed as physicochemical. To be noted: for half-life at 1 mM: buffer, read-out: degradation t1/2 (converted).

As for `COc1cc(/C=C/C(=O)CC(=O)/C=C/c2ccc(O)c(OC)c2)ccc1O` [curcumin], the half-life was 33.5 h in series [1] (glucagon buffer with further addition of human serum albumin), 12.5 h in series [1] (in a glucagon buffer) and roughly 7 h in series [1] (stored in glycine buffer at pH 9.0).

In the case of glucagon, the amyloid fibril formation entry in series [2] is “much less amyloid fibril formation”. The “Met27 oxidation of glucagon (peak A, LCMS)” value in series [3] (aged 7 days at 37° C. with 1 mM ferulic acid) is given as “minor oxidation occurs”; in series [3] (aged with 1 mM ferulic acid + 1 mg/ml L-methionine), “minimization of oxidation”; in series [3] (incubated with tetrahydrocurcumin), “much higher amount of Met27 oxidation”; in series [3] (tetrahydrocurcumin + 0.1 mg/ml L-methionine), “inhibited”; in series [3] (tetrahydrocurcumin + 1 mg/ml L-methionine), “nearly absent”. In series [3] (curcumin formulation + 1 mg/ml L-methionine), the “retention of unmodified glucagon” value was “higher retention of unmodified glucagon”. Also, the oxidation of glucagon entry in series [3] (incubated with curcumin for 7 days at 37° C.) is “complete oxidation”. Besides, the cytotoxicity result is “no cytotoxicity” in series [4] (aged at pH 10 in glycine); “some cytotoxicity” in series [4] (aged for 5 days at pH 8.5, concentration 2.5 mg/ml); “cytotoxic” with cultured mammalian cells.

As to `COc1cc(/C=C/C(=O)O)ccc1O` [ferulic acid], in series [5] (1 mM, pH 9), the “1st order degradation k” value is -0.000701 s⁻¹.

Consider `COc1cc(CCC(=O)CC(=O)CCc2ccc(O)c(OC)c2)ccc1O` [tetrahydrocurcumin], for which the “1st order degradation k” value was 0.00886 s⁻¹ in series [5] (1 mM compound in 80 mM glycine pH 9.0), 0.000743 s⁻¹ in series [5] (1 mM compound in 80 mM glycine pH 9.0 + 1 mg/ml glucagon) and -0.0025 s⁻¹ in series [5] (1 mM compound in 80 mM glycine pH 9.0 + 1 mg/ml glucagon + 1 mg/ml HSA). Moreover, the half-life at 1 mM in series [5] (pH 9, 1 mM compound in 80 mM glycine pH 9.0 + 1 mg/ml glucagon) is 933 h; in series [5] (pH 9, 1 mM compound in 80 mM glycine pH 9.0), roughly 78 h.
